These results are taken from article PMC7181604, “Arabidopsis FHY3 and FAR1 integrate light and strigolactone signaling to regulate branching”.

One data set concerns the target T1, His-FHY3-I (Arabidopsis thaliana, UniProt Q9LIE5 1-251).
T1 sequence: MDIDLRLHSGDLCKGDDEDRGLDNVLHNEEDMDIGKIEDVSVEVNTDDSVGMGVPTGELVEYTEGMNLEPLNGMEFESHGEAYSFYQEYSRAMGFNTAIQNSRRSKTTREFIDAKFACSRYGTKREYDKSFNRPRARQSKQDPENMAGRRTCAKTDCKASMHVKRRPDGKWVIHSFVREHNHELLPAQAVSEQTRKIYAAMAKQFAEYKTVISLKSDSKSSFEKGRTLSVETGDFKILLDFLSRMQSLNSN
Put plainly: EMSA; FHY3-I alone; Beyotime EMSA kit, manufacturer's protocol (binding buffer not stated); proteins stored in 5 mM Tris-Cl pH 8.0, 50 mM KCl. The following applies: protein: recombinant; tags: 6xHis (pET28a); label: biotin; blunt.

Another data set has as its target T2, GST-SPL9SBP (Arabidopsis thaliana, UniProt Q700W2 71-148).
T2 sequence: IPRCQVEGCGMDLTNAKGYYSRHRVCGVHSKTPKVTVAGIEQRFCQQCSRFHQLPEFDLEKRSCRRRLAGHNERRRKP
Put plainly: EMSA; Beyotime EMSA kit, manufacturer's protocol (binding buffer not stated); proteins stored in 5 mM Tris-Cl pH 8.0, 50 mM KCl. The following applies: protein: recombinant; tags: GST (N-terminal, pGEX-4T-1); label: biotin; blunt. (In general: In EMSA bound probe runs differently from free probe, usually more slowly.)

For another data set, the target named is T3, GST-SPL15SBP (Arabidopsis thaliana, UniProt Q9M2Q6 56-133).
T3 sequence: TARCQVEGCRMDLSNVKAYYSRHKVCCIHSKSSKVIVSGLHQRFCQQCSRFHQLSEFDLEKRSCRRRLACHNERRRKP
The data set is described as above. The note with it: protein: recombinant; tags: GST (N-terminal, pGEX-4T-1); label: biotin; blunt.

B1: BRC1 promoter EMSA probe (PB01/PB02) (dsDNA)
DNA 1: GAAGAAGCCAGCGAGTCCAACCATTATAGTCATGTGGTCCTCCTGATAATTGCAGGCCTA
DNA 2: TAGGCCTGCAATTATCAGGAGGACCACATGACTATAATGGTTGGACTCGCTGGCTTCTTC
Turning to B1, the binding result with His-FHY3-I was “no binding”; in the data set with GST-SPL9SBP, “binds”; in the data set with GST-SPL15SBP, “binds”.
